Tested on: primary gastrointestinal stromal tumor cells (GIST-1, GIST-2, GIST-3, GIST-4)
Experiment: Screening of factors added to the culture medium: cell count after 14 days of culture
Type: cell-based, human
Details: for Level of promoting cell proliferation: additive at the concentration of Table 1 in basic medium vs basic medium, 14 days, 2% oxygen, Collagen I coated plate, four patient samples
Procedure: Rat tail collagen type I (Collagen type I, manufactured by Corning Inc.) was diluted with ultrapure water in a ratio of 1:50 to prepare a collagen diluent. The collagen diluent was added 500 μl/well into a 24-well culture plate to completely cover the bottom of the culture plate wells. After standing in a incubator at 37° C. for 1 hour, the collagen diluent was removed to provide a culture plate coated with collagen.
First, a basic medium was prepared. To a commercial DMEM/F-12 medium, GlutaMAX-I (manufactured by Thermo Fisher […]) was added at a dilution ratio of 1:100, insulin-containing culture additive Insulin-Transferrin-Selenium-Ethanolamine (ITS-X, manufactured by Gibco) was added at a dilution ratio of 1:100, a ROCK kinase inhibitor Y27632 (manufactured by Sigma) was added at a final concentration of 10 µM, and commercial Primocin solution (manufactured by InvivoGen) (commercial product in concentration of 50 mg/ml) was added at a dilution ratio of 1:500, to obtain the basic medium.
Next, different types of additives (Table 1) were added to the basic medium to prepare culture mediums for gastrointestinal stromal tumor cells containing different components. The culture mediums with different components were added at a volume of 500 μl/well to 24-well plates coated with Collagen I, with 3 wells for per medium formulation. The GIST cells (GIST-1) isolated from GIST tissues in Section (1) of this example were inoculated in the 24-well culture plate coated with Collagen I at a cell density of 3×10^4/well, and were cultured under different medium formulations at 37° C., under 5% CO2 concentration and 2% oxygen concentration. The mediums were renewed every 3 days after the start of the culture. After 14 days of culture, cell counts were performed.
The tumor cells isolated from the other three gastrointestinal stromal tumor tissue samples were also cultured and counted in the same manner as above.

Molecule | Level of promoting cell proliferation | Effect on proliferation of primary gastrointestinal stromal tumor cells (in words) (additive in basic medium, in at least three cases)
fibroblast growth factor 10: receptor tyrosine kinase ligand, medium additive (R&D) (protein, UniProt O15520 38-208, looked up) Fibroblast growth factor 10: QALGQDMVSPEATNSSSSSFSSPSSAGRHVRSYNHLQGDVRWRKLFSFTKYFLKIEKNGKVSGTKKENCPYSILEITSVEIGVVAVKAINSNYYLAMNKKGKLYGSKEFNNDCKLKERIEENGYNTYASFNWQHNGRQMYVALNGKGAPRRGQKTRRKNTSAHFLPMVVHS | + | promote the proliferation
platelet-derived growth factor BB: receptor tyrosine kinase ligand, medium additive (R&D) (protein, UniProt P01127 82-190, looked up) Platelet-derived growth …: SLGSLTIAEPAMIAECKTRTEVFEISRRLIDRTNANFLVWPPCVEVQRCSGCCNNRNVQCRPTQVQLRPVQVRKIEIVRKKPIFKKATVTLEDHLACKCETVAAARPVT | + | –
